The source of these data is patent US20250388702A1 (Dana-Farber, published 2025).

T1: Human HHLA2-mIgG2a fusion protein (human; mouse, UniProt Q9UM44 23-344, limits assumed)
T1 construct: also called HHLA2-Ig; HHLA2-mouse IgG2a; not shown: mutated at IgG2a L235E, E318A, K320A, K322A
T1 sequence: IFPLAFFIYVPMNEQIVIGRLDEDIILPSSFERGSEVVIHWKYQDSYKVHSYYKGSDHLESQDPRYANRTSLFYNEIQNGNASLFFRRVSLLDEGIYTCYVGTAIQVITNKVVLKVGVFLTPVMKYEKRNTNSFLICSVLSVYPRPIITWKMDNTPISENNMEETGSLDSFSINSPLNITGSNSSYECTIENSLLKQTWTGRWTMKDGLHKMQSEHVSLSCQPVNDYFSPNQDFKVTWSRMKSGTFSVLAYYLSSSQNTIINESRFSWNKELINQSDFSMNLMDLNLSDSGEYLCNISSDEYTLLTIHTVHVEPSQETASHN

B1: KIR2DS1 (receptor, UniProt Q14954 22-304, looked up)
chain: HEGVHRKPSLLAHPGRLVKSEETVILQCWSDVMFEHFLLHREGMFNDTLRLIGEHHDGVSKANFSISRMKQDLAGTYRCYGSVTHSPYQLSAPSDPLDIVIIGLYEKPSLSAQPGPTVLAGENVTLSCSSRSSYDMYHLSREGEAHERRLPAGTKVNGTFQANFPLGPATHGGTYRCFGSFRDSPYEWSKSSDPLLVSVTGNPSNSWPSPTEPSSETGNPRHLHVLIGTSVVKIPFTILLFFLLHRWCSDKKNAAVMDQEPAGNRTVNSEDSDEQDHQEVSYA
notes: whole, on cells
B2: KIR3DL3 mAb 574.2.1D12.1.6 (antibody, IgG2a, V domains shown)
VH: QVQLQQSGAELVRPGTSVKVSCKASGYAFNNYLIEWVKQRPGQGLEWIGVINPGSGGTNDNEKFRGKATLTADTSSSTAYMQLTSLTSDDSAVYFCARGNYYGTRDWYFDVWGAGTTVTVSS
VL: QIVLTQSPAIMSASLGARVTMTCTASSSVSSSSLHWYQQKPGSSPKLWIYSISSLASGVPARFSGSGSGTSYSLTISSLEAEDAATYYCHQYHRSPPTFGGGTKLEIK
notes: Mouse hybridoma antibody, IgG2a; only variable domains given; also called AVS-3705
B3: KIR2DS5 (receptor, UniProt Q14953 22-304, looked up)
chain: HEGFRRKPSLLAHPGPLVKSEETVILQCWSDVMFEHFLLHREGTFNHTLRLIGEHIDGVSKGNFSIGRMTQDLAGTYRCYGSVTHSPYQLSAPSDPLDIVITGLYEKPSLSAQPGPTVLAGESVTLSCSSRSSYDMYHLSREGEAHERRLPAGPKVNRTFQADFPLDPATHGGTYRCFGSFRDSPYEWSKSSDPLLVSVTGNSSNSWPSPTEPSSETGNPRHLHVLIGTSVVKLPFTILLFFLLHRWCSNKKNASVMDQGPAGNRTVNREDSDEQDHQEVSYA
notes: whole, on cells
B4: PD-1 EH13.2A11.17.1 human IgG4 (S228P) (antibody, V domains shown)
VH: EVKLVESGGGLVQPGGSLKLSCAASGFTFSSFTLSWVRQTPEKRLEWVAYISYGGADTYYPDTVKGRFTIFRDNAKNTLYLQMSSLKSEDTARYYCARHGPYGKGDYYAMDYWGQGTSVTVSS
VL: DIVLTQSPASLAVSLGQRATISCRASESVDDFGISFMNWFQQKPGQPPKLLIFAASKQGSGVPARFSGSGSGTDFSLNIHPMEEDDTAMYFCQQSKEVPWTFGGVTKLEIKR
notes: Chimeric: mouse EH13 variable domains on human IgG4 (S228P) and human kappa (Km3); The printed word SignalPeptide_ is a placeholder and is left out; also called LP PD-1 mAb (TP-31850); PD-1 mAb EH13 human IgG4
B5: PD-1 mAb EH13.2A11.17.1 (antibody, V domains shown)
VH: B4 VH
VL: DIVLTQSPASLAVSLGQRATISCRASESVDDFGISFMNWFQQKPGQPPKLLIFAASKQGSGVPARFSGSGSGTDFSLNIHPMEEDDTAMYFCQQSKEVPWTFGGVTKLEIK
notes: Parental mouse hybridoma antibody; also called parental control hybridoma
B6: KIR2DL3 (receptor, UniProt P43628 22-341, looked up)
chain: HEGVHRKPSLLAHPGPLVKSEETVILQCWSDVRFQHFLLHREGKFKDTLHLIGEHHDGVSKANFSIGPMMQDLAGTYRCYGSVTHSPYQLSAPSDPLDIVITGLYEKPSLSAQPGPTVLAGESVTLSCSSRSSYDMYHLSREGEAHERRFSAGPKVNGTFQADFPLGPATHGGTYRCFGSFRDSPYEWSNSSDPLLVSVTGNPSNSWPSPTEPSSETGNPRHLHVLIGTSVVIILFILLLFFLLHRWCCNKKNAVVMDQEPAGNRTVNREDSDEQDPQEVTYAQLNHCVFTQRKITRPSQRPKTPPTDIIVYTELPNAEP
notes: whole, on cells
B7: KIR3DL3 mAb 574.2.2F11.2.7.4 human IgG4 (S228P) (antibody, V domains shown)
VH: DVQLVESGGGLVQPGGSRKLSCAASGFTFSYFGMHWVRRAPEKGLEWVAFISSDSTTIYYTDTVKGRFTISRDNPKNTLFLQMTSLRSEDTAIYYCARFYDGAMDYWGQGTSVTVST
VL: DIVMTQSQKFMSTSVGDRVSITCKASQSVRTAVAWYQQKPGQSPKVLIYLASNRHTGVPDRFTGSGSGTDFTLTISNVQSEDLADYFCLQHWNYPLTFGAGTKLELKR
notes: Chimeric: mouse 2F11 variable domains on human IgG4 (S228P) and human kappa (Km3); Signal peptide placeholder left out; also called LP KIR3DL3 mAb (TP-31851); KIR3DL3 mAb 2F11 human IgG4
B8: KIR2DS3 (receptor, UniProt Q14952 22-304, looked up)
chain: HEGFRRKPSLLAHPGRLVKSEETVILQCWSDVMFEHFLLHREGTFNDTLRLIGEHIDGVSKANFSIGRMRQDLAGTYRCYGSVPHSPYQFSAPSDPLDIVITGLYEKPSLSAQPGPTVLAGESVTLSCSSWSSYDMYHLSTEGEAHERRFSAGPKVNGTFQADFPLGPATQGGTYRCFGSFHDSPYEWSKSSDPLLVSVTGNPSNSWPSPTEPSSKTGNPRHLHVLIGTSVVKLPFTILLFFLLHRWCSDKKNASVMDQGPAGNRTVNREDSDEQDHQEVSYA
notes: whole, on cells
B9: KIR2DS2 (receptor, UniProt P43631 22-304, looked up)
chain: HEGVHRKPSLLAHPGPLVKSEETVILQCWSDVRFEHFLLHREGKYKDTLHLIGEHHDGVSKANFSIGPMMQDLAGTYRCYGSVTHSPYQLSAPSDPLDIVITGLYEKPSLSAQPGPTVLAGESVTLSCSSRSSYDMYHLSREGEAHERRFSAGPKVNGTFQADFPLGPATHGGTYRCFGSFRDSPYEWSNSSDPLLVSVTGNPSNSWPSPTEPSSKTGNPRHLHVLIGTSVVKIPFTILLFFLLHRWCSNKKNAAVMDQEPAGNRTVNSEDSDEQDHQEVSYA
notes: whole, on cells
B10: CD86 (ligand, human, UniProt P42081 24-329, looked up)
single chain: APLKIQAYFNETADLPCQFANSQNQSLSELVVFWQDQENLVLNEVYLGKEKFDSVHSKYMGRTSFDSDSWTLRLHNLQIKDKGLYQCIIHHKKPTGMIRIHQMNSELSVLANFSQPEIVPISNITENVYINLTCSSIHGYPEPKKMSVLLRTKNSTIEYDGVMQKSQDNVTELYDVSISLSVSFPDVTSNMTIFCILETDKTRLLSSPFSIELEDPQPPPDHIPWITAVLPTVIICVMVFCLILWKWKKKKRPRNSYKCGTNTMEREESEQTKKREKIHIPERSDEAQRVFKSSKTSSCDKSDTCF
notes: full length, on the cell surface

For experiment [1], the target named is T1, Human HHLA2-mIgG2a fusion protein. The experiment is described as follows: cell microarray on transfected HEK293 cells, HHLA2-mIgG2a probe, AF647 anti-mouse IgG detection. On the procedure: A library of ˜5500 full length cDNA clones covering more than 3,500 different plasma membrane proteins was arrayed in duplicate across 13 microarray slides (“slide sets”). Human HEK293 cells were grown above the cDNA clones and reverse-transfected. An expression vector (pIRES-hEGFR-IRES-ZsGreen1) was spotted in quadruplicate on every slide and was used to ensure that a minimal threshold of transfection efficiency had been achieved or exceeded on every slide.
Two replicate slides were screened for each of the 13 slide sets. Fluorescent images were analyzed and quantitated (for transfection efficiency) using ImageQuant software (GE). A protein ‘hit’ was defined as duplicate spots showing a raised signal compared to background levels. This was achieved by visual inspection using the images gridded on the ImageQuant software.

The target in experiment [2] is T2, KIR3DL1 (UniProt P43629 22-444, limits assumed).
T2 construct: whole, on cells
In words: HEK293 cell microarray. The protocol:
(§1) Replicate microarray slides expressing a complete KIR family cDNA panel were fixed and blocked with buffer containing PBS/0.5% BSA and incubated for 1 hour at room temperature with individual KIR3DL3 mAb hybridoma supernatants at 1:5, 1:25 and 1:250 dilutions in PBS/0.1% BSA. Cell arrays were washed with PBS and incubated for 1 hour at room temperature in PBS/0.1% BSA containing AF647-conjugated goat anti-mouse IgG (H+L) (Life Technologies, A21235). Slides were washed with PBS, dried, and imaged for ZsGreen1 and AF647 fluorescence.
(§2) In Table 4, replicate microarray slides expressing the KIR family cDNA panel (as in FIG. 1A, FIG. 2B, and FIG. 2C) were fixed and blocked with buffer containing PBS/0.5% BSA and incubated for 1 hour at room temperature with individual KIR3DL3 mAb hybridoma supernatants at 1:5, 1:25 and 1:250 dilutions in PBS/0.1% BSA. Cell arrays were washed with PBS and incubated for 1 hour at room temperature in PBS/0.1% BSA containing AF647-conjugated goat anti-mouse IgG (H+L) (Life Technologies, A21235). Slides were washed with PBS, dried, and imaged for ZsGreen1 and AF647 fluorescence.

In experiment [3] the target is T3, KIR3DL2 (UniProt P43630 22-455, limits assumed).
T3 construct: whole, on cells
The experiment is described as follows: HEK293 cell microarray. The protocol: as §1, §2

The target of experiment [4] is T4, KIR2DL1 (UniProt P43626 22-348, limits assumed).
T4 construct: whole, on cells
In words: HEK293 cell microarray. On the procedure: as §1, §2

Experiment [5] concerns the target T5, KIR2DL2 (UniProt P43627 22-348, limits assumed).
T5 construct: whole, on cells
In words: HEK293 cell microarray. On the procedure:
as §1, §2

For experiment [6], the target named is B6. In words: HEK293 cell microarray. On the procedure:
as §1, §2

Experiment [7] addresses T6, KIR2DL4 (UniProt Q99706 22-377, limits assumed).
T6 construct: whole, on cells
In words: HEK293 cell microarray. On the procedure:
as §1, §2

In experiment [8] the target is B1. In words: HEK293 cell microarray. On the procedure:
as §1, §2

For experiment [9], the target named is B9. The experiment is described as follows: HEK293 cell microarray. On the procedure:
as §1, §2

In experiment [10] the target is B8. The experiment is described as follows: HEK293 cell microarray. On the procedure:
as §1, §2

For experiment [11], the target named is B3. The experiment is described as follows: HEK293 cell microarray. On the procedure: as §1, §2
The target of experiment [12] is T7, KIR3DS1 (UniProt Q14943 22-382, limits assumed).
T7 construct: whole, on cells
In words: HEK293 cell microarray. On the procedure: as §1, §2

Experiment [13] has as its target T8, Human PD1, Sino Biological Cat #: HPLC-10377-H08H (human, UniProt Q15116 25-167).
T8 construct: Bought; also called PD-1 (Octet antigen)
In words: BLI (Octet RED96), antibody captured on the sensor, antigen in solution, 1:1 model. On the procedure:
(§3) Binding experiments were performed on Octat Red af 25″° C. The human antibodies were loaded onto Anti-higG Fe Capture biosensors and the mouse antibodies were loaded onto Anti-migG Fe Capture biosensors both for 300 seconds. The ligand loaded sensors were dipped into a 3-fold series dilution (starting at 300 nad) of the antigens (PD-1 and KIR3DL3) for 240 seconds followed by dissociation for 400 seconds. Kinetic constanta were calculated using a monovalent (1:1) binding model Antigen: Haman PD1, Sino Biological Cat #: HPLC-10377-HOSH.

For experiment [14], the target named is T9, Human KIR3DL3, Sino Biological Cat#: 16055-H08H (human, UniProt Q8N743 26-322).
T9 construct: Bought soluble antigen; also called KIR3DL3 (Octet antigen)
The experiment is described as above. The protocol: as §3

T8 sequence (Q15116 25-167 limits assumed): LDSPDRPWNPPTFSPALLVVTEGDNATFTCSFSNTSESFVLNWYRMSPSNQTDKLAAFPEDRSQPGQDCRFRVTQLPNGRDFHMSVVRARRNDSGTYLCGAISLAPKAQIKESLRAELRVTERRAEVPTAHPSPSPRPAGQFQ
T9 sequence (Q8N743 other isoform, or with tags, fused parts or gaps H08H H08H limits assumed): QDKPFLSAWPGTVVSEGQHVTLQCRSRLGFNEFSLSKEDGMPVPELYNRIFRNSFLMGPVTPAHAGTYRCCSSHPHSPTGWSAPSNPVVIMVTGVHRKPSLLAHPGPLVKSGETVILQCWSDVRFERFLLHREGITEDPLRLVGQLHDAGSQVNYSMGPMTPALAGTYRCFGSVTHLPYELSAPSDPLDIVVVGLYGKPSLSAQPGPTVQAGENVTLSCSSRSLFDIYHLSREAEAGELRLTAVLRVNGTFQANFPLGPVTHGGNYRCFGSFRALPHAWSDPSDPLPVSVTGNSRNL
T2 sequence (P43629 22-444 limits assumed): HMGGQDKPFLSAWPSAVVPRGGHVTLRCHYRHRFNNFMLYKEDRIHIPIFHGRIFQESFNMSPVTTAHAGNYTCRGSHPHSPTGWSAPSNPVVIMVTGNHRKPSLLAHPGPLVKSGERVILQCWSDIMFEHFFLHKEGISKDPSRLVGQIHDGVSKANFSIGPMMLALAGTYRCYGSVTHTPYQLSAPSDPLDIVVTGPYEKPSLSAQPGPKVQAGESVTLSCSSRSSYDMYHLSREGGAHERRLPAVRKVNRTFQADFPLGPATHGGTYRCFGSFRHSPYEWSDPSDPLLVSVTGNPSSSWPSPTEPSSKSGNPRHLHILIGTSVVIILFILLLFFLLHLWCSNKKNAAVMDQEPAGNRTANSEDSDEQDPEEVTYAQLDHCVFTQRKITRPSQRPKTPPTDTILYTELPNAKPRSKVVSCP
T7 sequence (Q14943 22-382 limits assumed): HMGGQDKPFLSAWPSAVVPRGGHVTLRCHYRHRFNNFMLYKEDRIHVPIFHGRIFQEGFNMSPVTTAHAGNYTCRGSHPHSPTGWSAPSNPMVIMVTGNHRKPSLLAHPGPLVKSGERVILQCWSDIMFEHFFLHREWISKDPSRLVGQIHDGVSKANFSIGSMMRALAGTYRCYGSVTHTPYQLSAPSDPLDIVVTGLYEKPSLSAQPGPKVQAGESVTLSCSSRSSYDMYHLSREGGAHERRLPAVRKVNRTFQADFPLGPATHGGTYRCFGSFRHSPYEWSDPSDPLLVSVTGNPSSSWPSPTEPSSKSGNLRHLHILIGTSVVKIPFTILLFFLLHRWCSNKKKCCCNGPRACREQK
T6 sequence (Q99706 22-377 limits assumed): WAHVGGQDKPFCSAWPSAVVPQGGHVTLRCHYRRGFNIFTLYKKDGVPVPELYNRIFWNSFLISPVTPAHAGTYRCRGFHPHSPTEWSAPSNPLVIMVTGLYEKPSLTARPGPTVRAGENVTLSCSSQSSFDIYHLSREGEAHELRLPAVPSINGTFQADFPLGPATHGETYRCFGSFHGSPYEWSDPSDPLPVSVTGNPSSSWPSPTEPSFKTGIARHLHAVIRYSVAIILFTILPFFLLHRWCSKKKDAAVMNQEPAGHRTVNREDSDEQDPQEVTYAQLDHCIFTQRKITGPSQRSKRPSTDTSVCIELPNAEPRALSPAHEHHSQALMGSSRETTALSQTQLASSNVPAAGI
T4 sequence (P43626 22-348 limits assumed): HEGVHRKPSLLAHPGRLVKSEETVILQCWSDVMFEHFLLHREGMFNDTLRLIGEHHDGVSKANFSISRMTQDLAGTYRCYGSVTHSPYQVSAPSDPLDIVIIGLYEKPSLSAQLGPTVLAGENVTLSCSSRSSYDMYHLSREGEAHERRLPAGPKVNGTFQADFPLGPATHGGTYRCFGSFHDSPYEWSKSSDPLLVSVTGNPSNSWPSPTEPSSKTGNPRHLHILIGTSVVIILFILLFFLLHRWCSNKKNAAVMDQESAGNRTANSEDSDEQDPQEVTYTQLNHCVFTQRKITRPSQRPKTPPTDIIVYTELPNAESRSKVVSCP
T3 sequence (P43630 22-455 limits assumed): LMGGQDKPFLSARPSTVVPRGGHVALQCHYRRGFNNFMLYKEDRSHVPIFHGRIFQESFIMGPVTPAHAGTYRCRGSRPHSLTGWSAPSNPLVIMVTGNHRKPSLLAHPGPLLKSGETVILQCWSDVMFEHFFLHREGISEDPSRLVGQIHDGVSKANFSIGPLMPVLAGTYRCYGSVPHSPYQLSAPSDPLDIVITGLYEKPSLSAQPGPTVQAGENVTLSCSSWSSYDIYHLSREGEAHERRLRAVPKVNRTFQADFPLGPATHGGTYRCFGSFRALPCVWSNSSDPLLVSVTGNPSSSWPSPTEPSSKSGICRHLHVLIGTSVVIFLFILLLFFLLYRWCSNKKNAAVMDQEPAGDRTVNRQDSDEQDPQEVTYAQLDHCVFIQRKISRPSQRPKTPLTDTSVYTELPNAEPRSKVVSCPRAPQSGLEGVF
T5 sequence (P43627 22-348 limits assumed): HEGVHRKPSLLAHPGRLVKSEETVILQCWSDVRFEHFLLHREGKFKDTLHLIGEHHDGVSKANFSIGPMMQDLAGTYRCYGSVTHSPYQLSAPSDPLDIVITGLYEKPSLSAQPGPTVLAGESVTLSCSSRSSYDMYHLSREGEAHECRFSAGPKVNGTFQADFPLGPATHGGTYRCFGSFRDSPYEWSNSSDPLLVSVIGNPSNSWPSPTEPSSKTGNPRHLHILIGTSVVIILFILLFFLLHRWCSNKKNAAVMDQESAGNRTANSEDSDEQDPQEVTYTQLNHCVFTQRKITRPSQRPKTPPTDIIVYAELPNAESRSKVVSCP

On to B1, for which, in experiment [1], the binding result is “no binding (tested: 20 ug/ml)”.
Take B2: the binding result in [2] is “no binding (tested: supernatant 1:5, 1:25, 1:250)”; in experiment [3], “no binding (tested: supernatant 1:5, 1:25, 1:250)”; in experiment [4], “no binding (tested: supernatant 1:5, 1:25, 1:250)”; in [5], “no binding (tested: supernatant 1:5, 1:25, 1:250)”; in [6] it was “no binding (tested: supernatant 1:5, 1:25, 1:250)”; in experiment [7], “no binding (tested: supernatant 1:5, 1:25, 1:250)”. Further, the binding result in experiment [8] is reported as “no binding (tested: supernatant 1:5, 1:25, 1:250)”; in experiment [9], “no binding (tested: supernatant 1:5, 1:25, 1:250)”; in [10], “no binding (tested: supernatant 1:5, 1:25, 1:250)”; in [11] it was “no binding (tested: supernatant 1:5, 1:25, 1:250)”; in experiment [12], “no binding (tested: supernatant 1:5, 1:25, 1:250)”.
B3: the binding result in [1] is reported as “no binding (tested: 20 ug/ml)”.
Broadly, the Kd is a measure of binding affinity in units of concentration. A word on the koff: it is the rate constant with which the complex falls apart. Lower therefore signals a long-lived complex. For orientation: kon means a measure of how fast the partners come together. The low end stands for slower complex formation, the high end for faster complex formation. In experiment [13], B4 registered a Kd of 6.88 nM, a koff of 0.00137 s⁻¹ and a kon of 199000 M⁻¹ s⁻¹.
The matching figures for B5: 7.1 nM, 0.00154 s⁻¹ and 216000 M⁻¹ s⁻¹.
Take B6: in [1], the binding result is reported as “no binding (tested: 20 ug/ml)”.
As for B7, in [14], the Kd worked out at 0.289 nM, the koff was 7.19e-05 s⁻¹ and the kon came out at 248000 M⁻¹ s⁻¹.
As for B8, the binding result in experiment [1] was “no binding (tested: 20 ug/ml)”.
The same measure, in the same setting: the same measure for B9: “no binding (tested: 20 ug/ml)”.
In the case of B10, the binding result in [1] was “no binding (tested: 20 ug/ml)”.
